Test results: the supplement of paper PMC10567573

B1: SLC2A12 (parent)
chain: TRIMIGLTLVFFVQITGQPNILFY
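Also: lentivirally expressed fusions sorted by FACS into six bins by GFP to DsRed ratio, PSI derived from sequencing read proportions per bin multiplied by bin number.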

Variants of: B1
Assay: protein stability index of a GFP-peptide fusion (GPS, HEK-293T) (PSI 1-6); higher = more stable
Conditions: c terminus: a fixed tail appended
Work on TRIMIGLTLVFFVQITGQPNIFFY yielded a protein stability index of 2.79. Variant TRIMIGLTLVLFVQITGQPNILFY has a protein stability index of 2.5. Work on TRIMIGLTLVDFVQITGQPNILFY yielded a protein stability index of 2.15. With TRIMIGLTLVEFVQITGQPNILFY the protein stability index was 1.63. In the case of TRIMIGLTLVGFVQITGQPNILFY, the protein stability index is reported as 2.78. TRIMIGLTLVCFVQITGQPNILFY showed a protein stability index of 3.27. In the case of TRIMIGLTLVIFVQITGQPNILFY, the protein stability index is reported as 3.63. TRIMIHLTLVFFVQITGQPNILFY showed a protein stability index of 2.34. Variant TRIMITLTLVFFVQITGQPNILFY has a protein stability index of 3.1. In the case of TRIMIFLTLVFFVQITGQPNILFY, the protein stability index is reported as 4.16. With TRIMIELTLVFFVQITGQPNILFY the protein stability index was 3.67. TRIMIVLTLVFFVQITGQPNILFY showed a protein stability index of 2.43. TRIMIDLTLVFFVQITGQPNILFY showed a protein stability index of 2.73. TRIMIILTLVFFVQITGQPNILFY gave a protein stability index of 1.06. For TRIMIGLTLVFFVQLTGQPNILFY, the protein stability index was 2.74. TRIMIGLTLVFFVQPTGQPNILFY gave a protein stability index of 3.74. TRIMIGLTLVFFVQMTGQPNILFY showed a protein stability index of 2.5. With TRIMIGLTLVFFVQFTGQPNILFY the protein stability index was 3.46. Variant TRIMIGLTLVFFVQRTGQPNILFY has a protein stability index of 2.93. Work on TRIMIGLTLVFFVQYTGQPNILFY yielded a protein stability index of 3.97. Variant TRIMIGLTLVFFVQATGQPNILFY has a protein stability index of 1.54. TRIMIGLTLVFFVQHTGQPNILFY gave a protein stability index of 2. With TRIMIGLTLVFFVQISGQPNILFY the protein stability index was 3.65. With TRIMIGLTLVFFVQINGQPNILFY the protein stability index was 4.04. With TRIMIGLTLVFFVQIEGQPNILFY the protein stability index was 2.95. In the case of TRIMIGLTLVFFVQIQGQPNILFY, the protein stability index is reported as 3.11. Variant TRIMIGLTLVFFVQIYGQPNILFY has a protein stability index of 3.48. Work on TRIMIGLGLVFFVQITGQPNILFY yielded a protein stability index of 2.77. Work on TRIMIGLQLVFFVQITGQPNILFY yielded a protein stability index of 2.43. For TRIMIGLYLVFFVQITGQPNILFY, the protein stability index was 2.64. For TRIMIGLPLVFFVQITGQPNILFY, the protein stability index was 4.51. For TRIMIGLCLVFFVQITGQPNILFY, the protein stability index was 3.82. For TRIMIGLDLVFFVQITGQPNILFY, the protein stability index was 2.01. TRIMIGLTLVFFVQITGQFNILFY gave a protein stability index of 3.16. Work on TRIMIGLTLVFFVQITGQVNILFY yielded a protein stability index of 3.9. With TRIMIGLTLVFFVQITGQGNILFY the protein stability index was 2.96. With TRIMIGLTLVFFVQITGQNNILFY the protein stability index was 1.72. For TRIMIGLTLVFFVQITGQRNILFY, the protein stability index was 3.63. TRIMIGLTLVFFVQITGQMNILFY gave a protein stability index of 2.83. TRIMIGLTLVFFVQITGQSNILFY showed a protein stability index of 2.39. TRIMIGLTLVFFVQITGQQNILFY gave a protein stability index of 2.6. With TRIMIGLTLVFFVQITGQTNILFY the protein stability index was 3.21. TRIMIGLTLVFFVQITGQINILFY showed a protein stability index of 3.15. With TRIRIGLTLVFFVQITGQPNILFY the protein stability index was 3.83. In the case of TRIVIGLTLVFFVQITGQPNILFY, the protein stability index is reported as 4.05. For TRITIGLTLVFFVQITGQPNILFY, the protein stability index was 2.73. Work on TRIIIGLTLVFFVQITGQPNILFY yielded a protein stability index of 1.92. For TRIFIGLTLVFFVQITGQPNILFY, the protein stability index was 2.29. Work on TRIYIGLTLVFFVQITGQPNILFY yielded a protein stability index of 2.6. For TRICIGLTLVFFVQITGQPNILFY, the protein stability index was 4.43. Work on TRILIGLTLVFFVQITGQPNILFY yielded a protein stability index of 2.64. Variant TRIDIGLTLVFFVQITGQPNILFY has a protein stability index of 3.33. Variant TRIWIGLTLVFFVQITGQPNILFY has a protein stability index of 3.96. For TRTMIGLTLVFFVQITGQPNILFY, the protein stability index was 1.84. For TRGMIGLTLVFFVQITGQPNILFY, the protein stability index was 2.12. In the case of TRMMIGLTLVFFVQITGQPNILFY, the protein stability index is reported as 3.1. TRKMIGLTLVFFVQITGQPNILFY showed a protein stability index of 2.94. TRPMIGLTLVFFVQITGQPNILFY gave a protein stability index of 2.49. With TRRMIGLTLVFFVQITGQPNILFY the protein stability index was 2.86. TRLMIGLTLVFFVQITGQPNILFY gave a protein stability index of 2.85. For TRFMIGLTLVFFVQITGQPNILFY, the protein stability index was 2.81. With TRAMIGLTLVFFVQITGQPNILFY the protein stability index was 2.59. With TRSMIGLTLVFFVQITGQPNILFY the protein stability index was 3.14. TRIMIGLTLVFFVQITTQPNILFY gave a protein stability index of 2.58. In the case of TRIMIGLTLVFFVQITRQPNILFY, the protein stability index is reported as 3.35. For TRIMIGLTLVFFVQITAQPNILFY, the protein stability index was 2.96. For TRIMIGLTLVFFVQITHQPNILFY, the protein stability index was 2.87. TRIMIGLTLVFFVQITKQPNILFY showed a protein stability index of 2.58. With TRIMIGLTLVFFVQITYQPNILFY the protein stability index was 3.48. With TRIMIGLTLVFFVQITGQPNILFE the protein stability index was 3.1. Work on TRIMIGLTLVFFVQITGQPNILFV yielded a protein stability index of 4.22. For TRIMIGLTLVFFVQITGQPNILFS, the protein stability index was 2.89. In the case of TRIMIGLTLVFFVQITGQPNILFC, the protein stability index is reported as 3.19. TRIMIGLTLVFFVQITGQPNILFH showed a protein stability index of 2.29. TRIMIGLTLVFFVQITGQPNILFF showed a protein stability index of 5.58. For TRIMIGLTLVFFVQITGQPNILFR, the protein stability index was 3.44. With TRIMIGLTLVFFVQITGQPNILFI the protein stability index was 3.33. In the case of TRIMIGLTLVFFVQITGQPNILFT, the protein stability index is reported as 3.56. Variant TRIMIGLTLVFFVQITGQPNILFQ has a protein stability index of 2.06. With TRIMIGLTLVFFVQITGQPNILFG the protein stability index was 2.83. Variant TRIMKGLTLVFFVQITGQPNILFY has a protein stability index of 3.18. Variant TRIMGGLTLVFFVQITGQPNILFY has a protein stability index of 3.23. With TRIMQGLTLVFFVQITGQPNILFY the protein stability index was 3.43. TRIMLGLTLVFFVQITGQPNILFY showed a protein stability index of 3.43. TRIMRGLTLVFFVQITGQPNILFY gave a protein stability index of 2.21. In the case of TRIMTGLTLVFFVQITGQPNILFY, the protein stability index is reported as 2.83. With TRIMIGLTLVFFVQITGQPNILLY the protein stability index was 3.52. Work on TRIMIGLTLVFFVQITGQPNILCY yielded a protein stability index of 2.54. TRIMIGLTLVFFVQITGQPNILDY gave a protein stability index of 2.29. With TRIMIGLTLVFFVQITGQPNILAY the protein stability index was 3.26. For TRIMIGLTLVFFVQITGQPNILHY, the protein stability index was 2.96. For TRIMIGLTLVFFVQITGQPNILSY, the protein stability index was 2.97. In the case of TRIMIGLTLVFFVQITGQPNILTY, the protein stability index is reported as 2.38. With TRIMIGLTLVFFVQITGQPNILEY the protein stability index was 3.67.
